This note sets out measurements from PMC8748815, “The N-terminal tail of the hydrophobin SC16 is not required for rodlet formation” (Scientific Reports, 2022).

This data set deals with the molecule itself. As to the kind of experiment: thioflavin T fluorescence; self-assembly during agitation (air:water interface), 50 μg/mL protein, 20 μM ThT, multicomponent buffer pH 8.5 with 1 M NaCl (SC16ΔN also at pH 5.5-8.5 with 10 mM-1 M NaCl), 6 replicates.

B1: SC16 with 13 residues from the N-terminal tail removed (residues 31Lys-114Leu of SC16) (domain or fragment, Schizophyllum commune, UniProt D8QCG9 31-114, looked up)
chain: KSCSSGPVYCCNKTEDHLDKGTTALLGLLNIKIGDLKDLVGLNCSPLSVIGVGGNSCSAQTVCCTNTYQHGLVNVGCTPINIGL
notes: class IB hydrophobin SC16, product of the hyd1 gene of Schizophyllum commune, NCBI ID EFI94929, residues 31Lys-114Leu; Expressed as H6-GB1-SC16ΔN with a thrombin site; also called SC16ΔN; not shown: His6, N-terminal, cleaved; B1 domain of protein G (GB1), N-terminal, cleaved
Consider B1, for which the binding result was “binds”.

B2: SC16 with the N-terminal signal sequence removed (18Thr-114Leu of the hyd1 gene of S. commune) (natural protein, Schizophyllum commune, UniProt D8QCG9 18-114, looked up)
chain: TAVPRDVNGGTPPKSCSSGPVYCCNKTEDHLDKGTTALLGLLNIKIGDLKDLVGLNCSPLSVIGVGGNSCSAQTVCCTNTYQHGLVNVGCTPINIGL
notes: Expressed as H6-GB1-SC16 with a thrombin site; also called hydrophobin SC16; not shown: His6, N-terminal, cleaved; B1 domain of protein G (GB1), N-terminal, cleaved
Regarding B2, the binding result was “binds”.
